# According to the domain aggregation screens of Martell et al. (2025):
# Assay: soluble fraction after stress (log2 fold change); higher = more stays soluble; pooled small domains, quantitative proteomics
# Details: stress: 50 degC
# Summary of the method: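 The stress applied to every library was 50°C. These custom libraries of small protein domains were pooled and measured at high throughput with quantitative proteomics as the read-out. Aggregation propensity is expressed as the base-two logarithm of the fold change in how much of each protein remains soluble. The higher the value, the more of that protein stays in solution.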
row,Sequence,soluble fraction (log2)
1,HMITEQEFQRVAAYVKNKAGINLNEKKVLVQGRLDSYMQRKGYSSYDEFMDRVERFPTGPEAEDLMNALTT,0.0575
2,HMLDQSYYETANEIISRYPLEEKSLIPIIQDIQATYRYLPPDLLDYVAKKIGITETKAYSVASFYENFSF,-0.327
3,HMFPELSPEEQLIVEVLSKTNDLQVNLISVKTNIDISRLTSLLFTLEMKGVIKTFAGGMYHLL,-0.538
4,HMVERRVRFTVAPGNAGLRLDLFLTAREIGLSRTQVGRAVDEGQIQVNGRPGRAGRKLKTGDVVAIVLPA,-0.783
5,HMDDLATAYKAMGVDASISDKDLKRAYRKLMSQHHPDKMIAKGVPADMVAMATEKTQEIQAAYDLIERSR,0.127
6,HMKPTGWVRGDMGVVDKGQLSITQGTVNVRSGPGLSYEILDQVRRGDRFPVIKSQSGWHNISM,0.0818
7,HMSENPLTSREIEIVQLLANGKTTKSIAEELHLSNGTIRNYVSIVLDKLNVSNRIEAIRKALDKGWL,-1.29
8,HMTKYEGLSLDLIIDGVVITHNLKLAKLDMNWLLDRLKENGWDNPKDIFYAYIDTAGNFRFQPKLKASRTR,0.202
9,HMGPDGLFAKFREPETGKDLLITQNVFVEQVLIKGVLTRTLTDAEANTYRAPFVNPEKRFPIYVWPNELP,0.142
10,HMKLSIEDLAAELIRKIEAGDIGNEQGKMPSERELLAIYPVSRYTLRQALNKLSKMGWIYQMQGRGSYIRF,-1.35
11,HMKQISQNIHRLRKEKGMSQEQLAQALHVTRQTVSAWERGIAQPSLDVLGQIAQLLGVEPERLLYGE,0.153
12,HMLKLEPYTINEINSLQELYDLGNVRALETLISIYKDKNQVYDTRFYVLDILSKYDNPLIQEALEESITN,-1.78
13,HMDIEFSDELRTFIDEWSKKEGGLVMMLHRIQNEYGFIPRTAAEKLSLISGIPLARIYGVITFYHFFKT,-0.461
14,HMKEVDSESAFAERGISEVWIPALQKMGILTLEALDAANPNKVFNDLGGMRKKLKIDAAMPTKDEVTAWIQ,0.0238
15,HMKAKPTLLTPYEERLKGWLETDSRRPKRDRRTGLALFAKLQQEGFTGSYTRVTEYIRRWRDSGG,-3.01
16,HMAEPLEIGDTVRIIDGFYGGEIGVISELVNPDAKNAEFEQVRVRLDQDTELALPIHNVERVRL,0.25
17,HMDESLLDYALREIKARIQNGTYPPGTKLSTQEISDSLGISRTPVVAAINRLVAQGVAEAIPRRGTIVAR,0.0188
18,HMGSEISLNAFNIPKGSVSVTAGGTKLVENQDYTVDYTLGRIKILNEGILNSGVPIQVNFENNTLFN,0.0829
19,HMAQISDEGLLRGLIVEMFEANPAVVEELLGGRDRKKGFVIGQIMKKTKGMANPALLDQLFYEELEKL,-0.867
20,HMGIDSSVYVEARYELGHLYLKQKKYAAAYASFKEILDMYASTTPGVLPGAYNKLAEIGMKRIPKNKL,-2.74
21,HMSQAVEISSVKTQIDGKSYYLHTIKQGQTLYGISKAYGVSVEELTTVNPETSKGLKVGQIIKVPDTKT,0.0299
22,HMAVVIPDVKGMTIEEAAPFLAEKGIRYNIIDSVFSKDVDPGAIVEIVPTPGSKVKEGRIVFVTINAK,-0.538
23,HMLTRQNFHGIKLPTIHEYIDLLNSRVNANIDKTNNWQSSVSHLRTYLNSHNINAVSKESINNYIDERLN,-0.572
24,HMNPEAFIQTLKQILSTYEKNDPIYLQEIKADLVKKFRIEIPINALETYLKENGYSNIYLKR,-0.133
25,HMREIRIIAEEGHGRLDAFLAGREELGLSRSRIKGLIEEGQVTLNGAVPKAKQPVSPGDEIVVSVPD,0.141

row,Sequence,soluble fraction (log2)
1,HMIQYRKILELHFKDISQRTISTSVGSSRNTVSDVIKRSEQLGLERLTDNMNNRWLEEFLFPEKQ,-4.17
2,HMTWIAEIELRLMGNGAVTGAKIVKSTDLKDVDAAIYRAALEASPYPAPESGIGGRFTIKLKY,0.198
3,HMGRNSTPKEPLKKFEVSPITEKEVRILDGRFGPYITDGATNVTVPKTITIEEITFERALDMLAEKAAKGP,0.0252
4,HMKYSNDFDKVSYSLGLSIASNLISSGVKTLNAEAFNDGLATVFEGRMPEINPDEANKILQNFFEGLQKE,0.0191
5,HMYGLSFLIGFTVVDRTYGDIGKVTAIDDSTVNTLMAVGDRLIPAQEAFITKIDNTKKIIYTQLPEGLL,0.177
6,HMAEWIYGKNVVKQSIEEGMVLKLILQRKEDPLFVLAQEKQIPVEILDRHKMTSLVKSDRHQGVAAQI,-0.477
7,HMSAPNPGQMHSWTDTQGRTLQATFIKADATTVTLNWNGRIVPIPLANLNAASQKLARELASAS,0.181
8,HMLINLGPRIRKERRSKGISQSDFSKNLGISASYLNLLENGRRTLTVPLLIKIGNELNLSLKDL,-0.0339
9,HMEALQKVSINYYDEGAGKQIAEVPLEVGAGDTEIALAVINKYMPAEYNLVSTDYQIRGGYVYVSVTPA,-0.072
10,HMRIVSGRESMLGRTVVVADWAGERGHVVVDGERWNAVASTPLAAGRRARIVGIDGLTLSVSPDDKP,0.216
11,HMRGGLATLTPRERQVLALMAEGRSNAGIAAELVVSGGAVEKHVASIFTKLGLPPDESDNRRVLAVLRHLG,-0.661
12,HMNLESNQYVIDISDSQVINKDEFETILNQNKTKDIVIKSNNNVTFTFEKGSMIGAEGKDNYDFSSQVNY,-0.0368
13,HMFKYRELLDWAKNRFDDLEVSIAPKALALLVESIGTDLRLLDSEIQKLSMYKPLEMISTNDVEDLVA,-0.357
14,HMSTSAAELLRTARQQAGMSQSAVAELAKTSQSAIAMYEAGNREPSLPVLQRLLAATGHQLSLSVLP,-0.228
15,HMNTFDLSKLEEIILASRDKAMKTKEFTELDNLKNLFITAGLDVQMSKNGIKLIKGPKFNSSLLEDF,-0.655
16,HMYTVKELSRLTGLTPRTLRYYDAIGLLSPARNRDNDYRLYGGAEVDRLQEILLYREMGLPLEEIGRILD,-1.45
17,HMYKLTYVVDGEVYLEETVSYGSKIAAAPAPEKEGYTFSGWEGLPEVMPAKDVTVSGSFTVN,-0.405
18,HMIPDPEKVMFDGGIRLLTQAGITEGKARSILGKWKRDHETERIIAALGAAQREGAIEPVSFIERVLRN,-0.0153
19,HMQVEEKNKKIELYIEGKIKELESNLMYVPNENKKKLLMAFMNRNEDIEIIKTKIDTIFNKSVAAYKENM,0.237
20,HMITQQEFQQKLEALLSRAEAESFHIKKEEAESFFSGDELTGEQMKLVFDYLLSKKIIVEGYLK,-0.0863
21,HMEDFDLSDTERKIIAQIGHGYSNKEIAQKLGFSEGTIRNYLSVILDKLDLRDRTQLAIWYLSR,-0.143
22,HMDINVDILPLLKTMTDTLRKVIELDIPFLKDARVQRVNSLDELLLRADITTAEKFRKVFEAYQIEADFGK,-0.804
23,HMPSLSPDETVVVDALRQQNDMQINMISVKTNLPIARLSAILFEMELKGVLKPLAGGVYHLL,-0.316
24,HMDPYEYQLELEKLINNATELNKKYNYDPLKDKILAADAVKNSLETYVLQNYIVALENEIKQTLNQYQIL,-0.44
25,HMVDSVIGSVGRVTVDIDNVEALGQVKLGGMEWSARSTSGDPIPAGTEVRVDRVEGVKVFVTPV,-0.00113

row,Sequence,soluble fraction (log2)
1,HMGPFYFDQDGKAYSGLLNRNGEILYFADPFNAAVKNTTKTIDGKTYTFNQNGRATSIDGIPLEPP,0.142
2,HMDDHLSFLAARLPDGASFDTDFDALGIDSFGMIALRAEVEERLGEQIADSDWTKVERPSEILAMLERK,-0.272
3,HMSKSENLYSAARELIPGGVNSPVRAFTGVGGTPLFIEKADGAYLYDVDGKAYIDYVGSWGPMVLGHNHP,0.0101
4,HMWNGIVDAGKARQHLMNLSQLGVGRRAVAAASDVAETVLMDIRSGTKTRIRARTERQILAVTPEMA,-2.23
5,HMRNMRKLWIARINAAARMNDISYSKLMHGLKLANVEINRKMLSEMAIDDPKSFTALVETAKKALNG,-0.894
6,HMDYYNILGVNKAATAQDIKRAYRKLAKEHHPDHGGDATRLQQVNEAYDTLKDPQRREQYDS,0.24
7,HMVNINEVEVSRDLAHAKVFVTFVGDRTDEINTQALKVLNAAQGFLRSRIASNNHMRTTPRIHF,-0.663
8,HMHPELSDSQRTLIALMASGLKDEAIAVEMGVGARTVRRKVQELYELLGVRTRFQAGVAANQRGW,-1.79
9,HMGLLGIYPNPVEGGSVRLLSDADLFGSRFELYDQSGKLVLNGFVTEGNFVSVKGISSGLYISVSYT,0.0024
10,HMRIQLNFSDQLLDDVMSEALKHIDRKSQEHHIEKQMDDEFMLVYIDARLIIQVIVNIINNAIKY,-0.00268
11,HMYVKIAADAAMPYTIKRVVTDYSSAALDAAYDGSLPKWLTISSSTKDAGSGLYRHEIIYTVTAHPE,-0.68
12,HMDITTIIADVPGPKTQIKVDIKNTSLHIFGGMNFKKEIDIGDNKEIINIKYINGTLTVKLKT,0.089
13,HMFLTPLEEARLVIEEIVIPKNIAVDLSPRPSALRKQQHELIAHYQLKSFSVGNERTKRLRILPKVI,-0.114
14,HMGVGTTDERLAVLNQIASRQTEALEKLGPNNPLVGLGQIRNTLSKMLEISGYPDSNQFFKQVPLDYEPPP,0.173
15,HMKSKHENLIDGLLKMISSMKPHDRLTPERQLAEEWAVSRMTLRRALEVLQFQGKIYTVPSSGLFVAEPK,-2.29
16,HMDIGTRQRIIAAAMELFRQKGMDGMSMRELAERAGVNKGLLHYYFTTKEAIFREVFVHQVEM,-0.15
17,HMAESSLPKMPRDESKYIYHSVQPGETVYSLSKRYSVSESDIVKSNPGIDITKLSLGLEVAIPRI,0.354
18,HMKSPAQAAALKKLWAAIKQNEQGEVVEVLFHNRKLTDAGLVHLKGLANLQTLNLYDTKITGAGLVHL,0.0876
19,HMDELVYVPNITGKTVEEARTELQKRDLGLNIAGHQFSDEFGKGRIISQDPAAGSRLKVNRSISVIVSSGQ,0.206
20,HMDFTMSEIQTAMAALPRGYRTVVQLYLVDGYSHKEIAEMLGVDVNTSKSQLSRGRKQLQAFLAAMS,-0.674
21,HMQEQSSYVGQFGTAATTLRPSGTVELEDGTRIDVVTVGEFIEKGEPVQVVRKDGTWLVVEKRRSK,0.286
22,HMNQILDFTREVKNLPEQDKIKIVEALWSIIYSNKDADIYETNLMRRLAGLLYIDNKTMGDIKEKIKQNL,-0.601
23,HMTKEEREKREKYEKLMKKAEELTAAKNHREVINVLGQAKAYATAAQLKEIEEKIKAATSEMNK,0.136
24,HMEVAPEKVLEALNELPEIYKIVLNLYAVENMSHKEIAKKLGISLGSSKSRLSRGRVMLNTLLNR,-1.42
25,HMSKPVVWIVGDSTVSAFTDNYYYPRYGWGTQIDKYLDGTFEVKNIALSGRSSTSYTADKEYGELIAG,0.0416
